T1: OVA (UniProt P01012 2-386)
T1 sequence: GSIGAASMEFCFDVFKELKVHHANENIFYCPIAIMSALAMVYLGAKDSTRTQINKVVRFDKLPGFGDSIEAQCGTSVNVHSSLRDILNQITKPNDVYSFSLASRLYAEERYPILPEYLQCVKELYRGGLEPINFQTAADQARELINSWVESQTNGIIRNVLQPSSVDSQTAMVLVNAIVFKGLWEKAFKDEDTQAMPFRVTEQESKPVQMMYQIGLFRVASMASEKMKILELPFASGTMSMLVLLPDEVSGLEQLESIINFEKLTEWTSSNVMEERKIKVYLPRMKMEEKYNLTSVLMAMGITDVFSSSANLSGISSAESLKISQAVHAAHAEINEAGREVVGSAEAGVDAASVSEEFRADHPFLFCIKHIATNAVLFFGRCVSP

B1: N547 (antibody, V domains shown)
VH: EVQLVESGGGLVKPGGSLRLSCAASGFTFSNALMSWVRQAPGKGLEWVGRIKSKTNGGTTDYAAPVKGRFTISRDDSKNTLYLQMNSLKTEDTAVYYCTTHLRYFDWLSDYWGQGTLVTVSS
VL: QSVLTQPPSMSAAPGQKVTISCSGSSSNIGNNYISWYQQLPGTAPKVLIYDNNKRPSGIPDRFSGSKSGTSATLGITGLQTGDEADYYCGSWDSSLSAGVFGTGTKVTVLG
B2: L66 (antibody, V domains shown)
VH: EVQLVESGGGVVRPGGSLRLSCAASGFTFDDYGMSWVRQAPGKGLEWVSGINWNGGSTGYADSVKGRFTISRDNAKNSLYLQMNSLRAEDTALYYCARDRVTMVRGVIMDYYGMDVWGQGTTVTVSS
VL: QTVVTQEPSLTVSPRGTVTLTCSSSTGAVTSGYYPGWFQLKPGQAPMSLIYSARKKHSWTPARFSGSLLGGKAALTLSGVQPEDEAEYYCLLYYGGAYVFGTGTKVTVLG
B3: human anti-M2 antibody C40 (antibody, V domains shown)
VH: QLQLQESGPGLVKPSETLSLTCTVSGGSISSSFYYCGWIRQPPGKGLEWIGSIYYRGSTYYNPSLKSRVTISVDTSKNQFSLKLSSVTAADTAVYYCARRVTMVRGVKGDYFDYWGQGTLVTVSS
VL: DIQMTQSPSSLSASVGDRVTITCRASQGISSWLAWYQQKPEKVPKSLIYAASSLQSGVPSRFSGSGSGTDFTLTISSLQPEDFATYYCQQYNYYPLTFGGGTKVEIKR
B4: C40G1 (antibody, V domains shown)
VH: B3 VH
VL: B3 VL

One assay has as its target T1, OVA. The assay is described as follows: ELISA.
For the molecule B1, the binding result is listed as “no binding (tested: OD450 below 0.1)”.
Consider B2, for which the binding result was “no binding (tested: OD450 below 0.1)”.
Still for that read-out and setting: to B3 belongs “no binding (tested: OD450 below 0.1)”; to B4, “no binding (tested: OD450 below 0.1)”.

The next assay deals with T2, BSA (UniProt P02769 25-607).
T2 construct: carrier for immunization
T2 sequence (P02769 25-607 limits assumed): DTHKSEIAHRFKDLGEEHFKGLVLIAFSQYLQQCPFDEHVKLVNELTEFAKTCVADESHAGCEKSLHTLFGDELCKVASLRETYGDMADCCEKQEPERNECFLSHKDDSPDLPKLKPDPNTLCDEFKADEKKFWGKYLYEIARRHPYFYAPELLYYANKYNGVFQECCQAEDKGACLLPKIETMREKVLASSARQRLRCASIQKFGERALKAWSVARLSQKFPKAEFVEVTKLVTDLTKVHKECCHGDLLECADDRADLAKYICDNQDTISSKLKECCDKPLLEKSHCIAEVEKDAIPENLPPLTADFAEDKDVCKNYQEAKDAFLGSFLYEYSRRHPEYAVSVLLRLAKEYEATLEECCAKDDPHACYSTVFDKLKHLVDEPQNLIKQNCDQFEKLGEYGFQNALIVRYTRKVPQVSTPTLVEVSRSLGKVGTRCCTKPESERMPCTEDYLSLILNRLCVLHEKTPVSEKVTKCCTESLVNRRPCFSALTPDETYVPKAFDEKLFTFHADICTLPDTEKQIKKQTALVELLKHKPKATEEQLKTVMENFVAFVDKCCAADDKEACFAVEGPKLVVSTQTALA
As to the kind of experiment: ELISA. (ELISA stands for enzyme-linked immunosorbent assay.)
As to B1, the binding result is “no binding (tested: OD450 below 0.1)”.
Same read-out and setting: to B2 belongs “no binding (tested: OD450 below 0.1)”.
Consider B3, for which the binding result is reported as “no binding (tested: OD450 below 0.1)”.
The same measure, in the same setting: the value for B4 was “no binding (tested: OD450 below 0.1)”.

For the origin of these results see US20050170334A1 (published 2005).
